This note sets out measurements from US20240409634A1 (Janssen / Centocor, published 2024).

Positions count from the first letter of the chain named.

This experiment has as its target human CD33 on CD33-expressing THP-1 cells (human, UniProt P20138 18-364). The experiment can be described thus: cell-based or functional assay.

Sequence of human CD33 on CD33-expressing THP-1 cells (P20138 18-364): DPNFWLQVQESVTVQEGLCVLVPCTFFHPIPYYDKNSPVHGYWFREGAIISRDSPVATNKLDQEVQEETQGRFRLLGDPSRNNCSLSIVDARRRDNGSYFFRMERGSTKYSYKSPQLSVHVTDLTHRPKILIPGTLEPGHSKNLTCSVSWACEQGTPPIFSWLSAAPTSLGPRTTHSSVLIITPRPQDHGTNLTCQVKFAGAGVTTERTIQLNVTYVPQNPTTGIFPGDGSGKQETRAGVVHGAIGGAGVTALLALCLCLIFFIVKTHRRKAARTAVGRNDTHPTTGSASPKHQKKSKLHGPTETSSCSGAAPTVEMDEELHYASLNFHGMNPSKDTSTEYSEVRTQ

B1: CD33 antibody JL5 combined with Vdelta2 antibody 6H4 (JL5x6H4), Fab (CD33) x VHH (Vδ2) Fc construct (bispecific antibody, human IgG1, lambda, L234A L235A)
heavy: QVQLQESGPGLVKPSETLSLTCSVSGASIRNYYWSWIRQTAGKGLEWLGHIYSTGNIHYNPSLKSRVTMSVDTSNNQFSLKLRSVTAADTAVYYCARDNGAALFDYWGQGTLVTVSSASTKGPSVFPLAPSSKSTSGGTAALGCLVKDYFPEPVTVSWNSGALTSGVHTFPAVLQSSGLYSLSSVVTVPSSSLGTQTYICNVNHKPSNTKVDKKVEPKSCDKTHTCPPCPAPEAAGGPSVFLFPPKPKDTLYITREPEVTCVVVSVSHEDPEVKFNWYVDGVEVHNAKTKPREEQYNSTYRVVSVLTVLHQDWLNGKEYKCKVSNKALPAPIEKTISKAKGQPREPQVYTLPPSREEMTKNQVSLSCAVKGFYPSDIAVEWESNGQPENNYKTTPPVLDSDGSFFLVSKLTVDKSRWQQGNVFSCSVMHEALHNRFTQKSLSLSPGK
light: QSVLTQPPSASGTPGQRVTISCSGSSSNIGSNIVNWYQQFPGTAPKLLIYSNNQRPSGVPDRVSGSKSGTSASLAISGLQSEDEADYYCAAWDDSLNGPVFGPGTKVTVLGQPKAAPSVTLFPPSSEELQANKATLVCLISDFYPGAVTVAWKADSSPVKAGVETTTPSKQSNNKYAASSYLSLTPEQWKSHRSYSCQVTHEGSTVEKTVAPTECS
chain: EVQLVESGGGLVQAGGSLRLSCAASGRPFSNYGMGWFRQAPGKKREFVAGISWSGGSTDYADSVKGRFTISRDNAKNTVYLQMNSLKPEDTAVYYCAAVFSGAETAYYPSDDYDYWGQGTQVTVSSEPKSSDKTHTCPPCPAPEAAGGPSVFLFPPKPKDTLYITREPEVTCVVVSVSHEDPEVKFNWYVDGVEVHNAKTKPREEQYNSTYRVVSVLTVLHQDWLNGKEYKCKVSNKALPAPIEKTISKAKGQPREPQVYTLPPSREEMTKNQVSLWCLVKGFYPSDIAVEWESNGQPENNYKTTPPVLDSDGSFFLYSKLTVDKSRWQQGNVFSCSVMHEALHNHYTQKSLSLSPGK
In the case of B1, the “Cytotox EC50 (pM) E:T 1:1 - 22 hrs” value is 5.4 pM and the “Cytotox EC50 (pM) E:T 1:20 - 94 hrs” value came to 15 pM.

B2: CD33 antibody JL6 combined with Vdelta2 antibody 6H4 (JL6x6H4), Fab (CD33) x VHH (Vδ2) Fc construct (bispecific antibody, human IgG1, lambda, L234A L235A)
heavy: QVQLQESGPGLVKPSETLSLTCTVSGGSISSYYWGWIRQPPGKGLEWIGYIYYSGSTNYNPSLKSRVTISVDTSKNQFSLKLSSVTAADTAVYYCARMWEILGFDPWGQGTLVTVSSASTKGPSVFPLAPSSKSTSGGTAALGCLVKDYFPEPVTVSWNSGALTSGVHTFPAVLQSSGLYSLSSVVTVPSSSLGTQTYICNVNHKPSNTKVDKKVEPKSCDKTHTCPPCPAPEAAGGPSVFLFPPKPKDTLMISRTPEVTCVVVSVSHEDPEVKFNWYVDGVEVHNAKTKPREEQYNSTYRVVSVLTVLHQDWLNGKEYKCKVSNKALPAPIEKTISKAKGQPREPQVYTLPPSREEMTKNQVSLSCAVKGFYPSDIAVEWESNGQPENNYKTTPPVLDSDGSFFLVSKLTVDKSRWQQGNVFSCSVMHEALHNRFTQKSLSLSPGK
light: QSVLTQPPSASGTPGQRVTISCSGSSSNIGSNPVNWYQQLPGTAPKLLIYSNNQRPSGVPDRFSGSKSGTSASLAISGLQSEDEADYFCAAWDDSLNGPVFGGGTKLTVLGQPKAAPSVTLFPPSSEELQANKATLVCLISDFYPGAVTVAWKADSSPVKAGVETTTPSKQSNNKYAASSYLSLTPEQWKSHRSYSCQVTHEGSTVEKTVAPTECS
chain: B1 chain with Y163M, T165S, E167T
B2: the “Cytotox EC50 (pM) E:T 1:1 - 22 hrs” value amounted to 6.2 pM and the “Cytotox EC50 (pM) E:T 1:20 - 94 hrs” value is 30 pM.
